Assay results published in patent publication US7422862B2, “Methods for identifying modulators of apoptosis” (The Burnham Institute, priority 2001, dated 2008).

How the values were obtained:
[1] = molecular target: T1, BaxΔTM (Homo sapiens, UniProt Q07812); experiment: Co-immunoprecipitation of BaxΔTM with GFP-TM(Bax); format: binding; settings: lysates pre-incubated with peptide
T1 construct: a C-terminally truncated Bax protein (residues 1-169) (BaxΔTM); expressed in transfected cells; host or cells: HEK293T (lysates mixed in vitro)
Experimental: (A-B) Humanin peptide prevents STS-induced Bax translocation in vivo. Cos-7 cells were first transfected with GFP-Bax plasmids. After 24 hrs, untagged wild-type or C8P mutant Humanin peptides were introduced into cells using ChariotTM reagent, and 2 h later cells were treated with 1 μM STS. After 4 h, the percentage of cells with translocated Bax was determined (mean±SD; n=3) by confocal microscopy (A) and representative photomicrographs (B). (C) Wild-type or C8P mutant Humanin peptides were introduced into Cos7 cells using ChariotTM reagent. Cytosolic (C) and mitochondria-containing (M) fractions were isolated by differential centrifugation 23 and analyzed by immunoblotting using anti-Bax (top), Hsp60 (middle) (mitochondrial marker), or Tubulin (bottom) (cytosol marker) antibodies. (D) HN or mutant control double-strand siRNAs were transfected into SF268 cells. After 48 h, cells were cultured without (Control) or with 0.1 uM STS. After 24 hr, cells were fractionated and analyzed by immunoblotting as above. (E) Isolated mitochondria were mixed with 400 ng Bax protein, with or without preincubating Bax with 100 uM Humanin or Humanin(C8P) peptides for 10 min. After 3 h at 30° C., mitochondria were centrifuged and the resulting pellets (P) and supernatants (S) were analyzed by immunoblotting using anti-Cytochrome c (top), Hsp60 (middle), and Bax (bottom) antibodies. […]

[2] = molecular target: T2, RFP-Bax (Homo sapiens, UniProt Q07812); experiment: Cellular co-localization in Cos-7 cells (confocal microscope); format: cell-based
T2 construct: expressed in transfected cells; host or cells: Cos-7
Excerpt: GFP-HN and a Red Fluorecence Protein (RFP) vector, RFP-Bax, were transfected into Cos-7 cells. The intracellular localization of the expressed polypeptides was examined using a confocal microscope. […] GFP-HN localized to punctate intracellular membranes and when GFP-HN and RFP-Bax were co-expressed, the two polypeptides co-localized to intracellular membranes (data not shown).

T1 sequence (Q07812 1-169, stated change not applied): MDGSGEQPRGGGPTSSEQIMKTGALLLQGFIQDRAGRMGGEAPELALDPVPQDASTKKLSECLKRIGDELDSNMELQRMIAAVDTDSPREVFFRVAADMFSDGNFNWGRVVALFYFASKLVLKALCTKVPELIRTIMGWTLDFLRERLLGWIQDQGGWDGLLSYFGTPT
T1 sequence (Q07812 170-192 partner limits assumed): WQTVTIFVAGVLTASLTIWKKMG
T2 sequence (Q07812 whole entry): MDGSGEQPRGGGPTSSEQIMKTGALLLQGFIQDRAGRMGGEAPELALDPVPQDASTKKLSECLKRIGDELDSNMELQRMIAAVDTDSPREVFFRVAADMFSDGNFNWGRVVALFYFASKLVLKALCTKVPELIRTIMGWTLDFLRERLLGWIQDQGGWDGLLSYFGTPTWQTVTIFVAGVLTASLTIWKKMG

Row | co-localization with RFP-Bax [2] | Substance | interaction of BaxΔTM with GFP-TM [1]
1 |  | Humanin: 24 amino acid polypeptide, cytosolic form of human Humanin (SEQ ID NO:2); used as synthetic peptide or expressed fusion | immunoprecipitated
2 | co-localized | GFP-HN: Wild-type full-length Humanin fused to Green Fluorescent Protein | 
